Experimental findings from paper PMC4828312 are described below.

Assay [1] has as its target Assembled microtubules (containing ~25% of TUBB3) (porcine). The experiment in a line: SPR.
Assay [2] concerns the target Human recombinant tubulin β-3 (TUBB3) (human) (UniProt Q13509). The experiment in a line: SPR.

What is called Kd is a measure of binding affinity in units of concentration.

Human recombinant tubulin β-3 (TUBB3) (human), sequence (Q13509 whole entry): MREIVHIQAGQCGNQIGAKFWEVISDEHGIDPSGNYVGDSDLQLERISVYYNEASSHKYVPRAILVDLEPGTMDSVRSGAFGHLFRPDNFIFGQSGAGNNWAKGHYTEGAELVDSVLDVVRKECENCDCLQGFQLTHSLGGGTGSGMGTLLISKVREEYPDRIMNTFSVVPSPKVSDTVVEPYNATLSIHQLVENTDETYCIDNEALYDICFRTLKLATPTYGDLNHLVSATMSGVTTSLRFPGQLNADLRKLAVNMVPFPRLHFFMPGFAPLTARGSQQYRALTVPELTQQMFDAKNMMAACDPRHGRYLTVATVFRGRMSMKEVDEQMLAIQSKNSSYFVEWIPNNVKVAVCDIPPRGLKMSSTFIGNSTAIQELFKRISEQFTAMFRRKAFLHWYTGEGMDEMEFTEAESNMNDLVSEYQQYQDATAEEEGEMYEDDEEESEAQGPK

For the substance “HIV-1 envelope glycoprotein gp120, strain ADA (natural protein)”, the Kd in assay [1] worked out at 12 nM; in assay [2], 10.3 nM.
In assay [1], “HIV-1 envelope glycoprotein gp120, strain IIIB (from UniProt P04578 33-511) (natural protein)” came in with a Kd of 10 nM.
“HIV-1 envelope glycoprotein gp120, strain MN (from UniProt P05877 32-513) (natural protein)”: in assay [1], the Kd was 62.7 nM.
